Data on 2 substances can be found in publication PMC4981318.

In test [1] the target is gp41 17–163 (construct H; MPER truncated by 9 C-terminal residues) (HIV-1 (HXB2 isolate)). Kind of test: AUC; sedimentation velocity, 50,000 rpm, 20°C; 20 mM sodium phosphate, pH 7, 150 mM NaCl, 10 mM DPC (excess of micelles); 10–20 μM protein.
For test [2], the target named is gp41 17–194 (Env 528 to 705; FPPR to TM, IL replaced by the L6 spacer) (HIV-1 (HXB2 isolate)). Briefly: AUC; sedimentation velocity, 20°C; 20 mM sodium phosphate, pH 7, without NaCl, DPC; 1–2 μM protein left soluble.

Consider “gp41 17–163 (construct H; MPER truncated by 9 C-terminal residues) (domain or fragment)”, for which the stoichiometry N in test [1] turned out to be 3.
Take “gp41 17–194 (Env 528 to 705; FPPR to TM, IL replaced by the L6 spacer) (domain or fragment)”: in test [2], the stoichiometry N worked out at 3.
